Consider one molecule from publication PMC10638432, “Biodistribution and function of coupled polymer-DNA origami nanostructures”.

The target in this data set is recombinant human TNF-alpha (biotinylated, R&D Systems BT210) (human, UniProt P01375 77-233). The data set is described as follows: flow cytometry (FACS) bead binding; TT linker did not affect binding; PBS-/- (no Ca/Mg) with 0.005% Tween-20, 1 h at 37 C, biotinylated TNFa on streptavidin magnetic beads; pH not stated. Conditions: protein: commercial; tags: biotin; chain copies: 3; label: 5' ATTO647N. (In flow cytometry, cells or beads pass a laser one at a time.)
Chain of recombinant human TNF-alpha (biotinylated, R&D Systems BT210) (P01375 77-233): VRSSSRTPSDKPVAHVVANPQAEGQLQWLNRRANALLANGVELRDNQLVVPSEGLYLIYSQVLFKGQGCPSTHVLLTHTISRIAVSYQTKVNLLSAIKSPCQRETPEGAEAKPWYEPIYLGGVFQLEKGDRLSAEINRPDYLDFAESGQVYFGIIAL

B1: TNFa aptamer polyT linker (hTNFa long rod aptamer) (ssDNA)
DNA: TTTGGTGGATGGCGCAGTCGGCGACAA
With B1, the binding result is “binds”.
